According to the supplement of paper PMC9170038:

System: MS2 coat protein
Test: apparent KD of MS2 coat protein; higher = weaker reporter binding
Conditions: Eterna round: R107; input ligand: theophylline 20 uM
How it was run: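 Values are apparent KD, taken as the median for each design of fits to normalised binding curves from individual clusters. The designed RNA switches were transcribed on-chip from Illumina sequencing clusters and exposed to SNAP-549-labelled MS2 coat protein at twofold increasing amounts from 0.7 or 1.5 nM to 3 µM. Titration used 100 mM Tris-HCl pH 7.5, 80 mM KCl and 4 mM MgCl2, without or with constant ligand.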

Sequence	apparent KD of MS2 coat protein [nM]
AGUCUUGAACGAAGGAGCGACGUACAUGAGGAUCACCCAUGUGGGAGCGAAAGCUCCCAACGUCAGGUAGGUCGCGUUCGAGACA [SS-ArgB29]	24.7
AAAUAAAUACAUGAGGAUCACCCAUGUGAAGGAGCGCGCGUUAGCGCAGGUAGGUCGCACAUGAACUCCAAAGUGCAAAAGCACA [MAT - Exclusion Arginine A - Mod of Eli - D8]	25.1
ACACAUGAGGGAAGGAGCGCCAUGAACACACAUGAGGAUCACCCAUGUUUUUUUUGUGUUUGGCAGGUAGGUCGCCCACAUGAGG [Same State Arginine B 2]	22.5
GUCAGUGACAGAAGGAGCGACAUGAGGAUCACCCAUGUCUCCCGUUAUGGGAGUUCCUUAGGUCAGGUAGGUCGCUGUCACUGAC [#1 Exclusion - Arginine B Attempt #30 (Inspired by Omei)]	137
GUGCUGGUAUCGGCCGCCACUGUAACAUGACAUCCCAGGGCCGACAUGAGGAUCACCCAUGUUAACAGGACCGGGAUAUCAACGA [Riorquen]	28.9
CACGGACGAGUGGAUCACCCUCGUAAUAACCGAGGACCGGUACGGCCGCCACUCGAAAACCGUGACCUGUACGAAAAGUGCAGGA	210
GGUGGGACUUGUGAUACCAGCCUAAUUCUAAACGAAUUGCACAUGAGGAUCACCCAUGUCGGCCCUUGGCAGCAUGAGUAUUUAU [Anartiison]	104
AUGCAUGUCAGAAGGAGCGUCUUUAACAUGAGGAUCACCCAUGUAACAUUGAAUUCGAUGAGACAGGUAGGUCGCUGAAUAGUAA [JR_SSArginiB_Sub020]	72.3
GCGUUGGUCGGAAGGAGCGACAUGAGGAUCACCCAUGUCUCCCGUUAUGGGAGUUCCUUAGGUCAGGUAGGUCGCCGACUGACGC [#1 Exclusion - Arginine B Attempt #20 (Inspired by Omei)]	193
CUUGAGACAUGAGGAUCACCCAUGUCCGAAGGAGCGUGCGAAAGCACAGGUAGGUCGCGGACAUGAGGAUCACCCAUGUGAGCGA [EAA NP+V+V2 #7 DOUBLE]	25.9
ACGUCCGGAUUAAUCGUGGGCAUGGUCGAUACCAGUAUUUUAAUCUACCCUUGGCAGCGACAUGAGGAUCACCCAUGUGCGAUGA [XTheo A #18]	23
UAAGUUAGGGCGGCCGCCACUCGAACAUGAGGAUCACCCAUGUAAAUUAAUUAAAGGACAUGAAUGAGGACCGGGCCAAGUUAGA [Same State - Tryptophan B / A]	20.2
GGCCCUGCGAGCGCUCGCAGGGCCGCGGAUACCAGCGAGGUCCAUCGCCCUUGGCAGCCGAACAUGAGGAUCACCCAUGUCGGUU [#1 Same State - Theophylline A Attempt #12 (HarryS)]	12.3
CCUGCGUUUCUUUUCUUUCGCAGGAAUGAUACCAGUAGGGAAACCUACCCUUGGCAGCAUGGGACAUGAGGAUCACCCAUGUUAU [SSThA NP+V+V2 #3]	243

Same assay, conditions: Eterna round: R107; input ligand: theophylline 2 mM

Sequence	apparent KD of MS2 coat protein [nM]
UUCAGCUAGUCGGCCGCCACUACAUGAGGAUCACCCAUGUCGGUCCUCACUGCUUCGGCAGUGUGUAGGACCGGGACUAGCUGAG	91.3
AACGAUUAAUCGGCCGCCACUCACAUGAGGAUCACCCAUGUUGUUCUUCCAGGUGGUUCUGUUCCGAGGACCGGGAUUCCGUCCU [theeternabot_exclusion_MS2_Trp_B_42]	70.7
CACGAUUUGUCGGCCGCCACUAAGGUAACUCUUCUCACAUGAGGAUCACCCAUGUGCCCGAAGCUUAGGACCGGGAUAAUGGGUG [Dieson]	288
UAUGCACAUGAGGAUCACCCAUGUAUGGAAGGAGCGGUGAAUGAACCAGGUAGGUCGCCAUGGUGAGGAUCAUCUAUGUAUUCGU [Exclusion - Arginine A (Freestyle 8)]	117
UGUAUGUGAUUUGAUACCAGACCAGCUGGUGGUAUCUGAGGAUCACCCAGGUAGGUUUGGGUCCCUUGGCAGCAAAUCGCAUACU [SS Theo B #24 Ms15]	335
GUCUUUGACGAUCUGGGAAAACCAGAUCGACGAGGACCGGUACGGCCGCCACUCGUGUUUUCUUUACAUGAGGAUCACCCAUGUA [#17 Tryptophan A Same State]	15.1
UCCGGACGUUCGGCCGCCACUAAUUUACAUGAGGAUCACCCAUGUGCCAGUGGUCCGCAGAGUAAUAGGACCGGGAACCUUGGCU [theeternabot_exclusion_MS2_Trp_B_10]	26.3
UUUUUCGCGGGCGAUACCAGCUUGAUCGUACUGGCCUGGUACAUGAGGAUCACCCAUGUAAGCCCUUGGCAGCGCGCGCGAGAAG [#1 Exclusion - Theophylline B Attempt #2 (HarryS)]	30.4
UGUCAGCGAAAGUUGACAUGUCUUACCGGUCGAGGACCGGUACGGCCGCCACUCGAUCUCUCGCACAUGAGGAUCACCCAUGUUG [SS Tryp A #22]	26.5
AGUCUUGAACGAAGGAGCGACGUACAUGAGGAUCACCCAUGUGGGAGCGAAAGCUCCCAACGUCAGGUAGGUCGCGUUCGAGACA [SS-ArgB29]	20.4
AAAUAAAUACAUGAGGAUCACCCAUGUGAAGGAGCGCGCGUUAGCGCAGGUAGGUCGCACAUGAACUCCAAAGUGCAAAAGCACA [MAT - Exclusion Arginine A - Mod of Eli - D8]	20.5
ACACAUGAGGGAAGGAGCGCCAUGAACACACAUGAGGAUCACCCAUGUUUUUUUUGUGUUUGGCAGGUAGGUCGCCCACAUGAGG [Same State Arginine B 2]	9.33
GUCAGUGACAGAAGGAGCGACAUGAGGAUCACCCAUGUCUCCCGUUAUGGGAGUUCCUUAGGUCAGGUAGGUCGCUGUCACUGAC [#1 Exclusion - Arginine B Attempt #30 (Inspired by Omei)]	284
GUGCUGGUAUCGGCCGCCACUGUAACAUGACAUCCCAGGGCCGACAUGAGGAUCACCCAUGUUAACAGGACCGGGAUAUCAACGA [Riorquen]	19.5
CACGGACGAGUGGAUCACCCUCGUAAUAACCGAGGACCGGUACGGCCGCCACUCGAAAACCGUGACCUGUACGAAAAGUGCAGGA	531
AUGCAUGUCAGAAGGAGCGUCUUUAACAUGAGGAUCACCCAUGUAACAUUGAAUUCGAUGAGACAGGUAGGUCGCUGAAUAGUAA [JR_SSArginiB_Sub020]	62.5
GCGUUGGUCGGAAGGAGCGACAUGAGGAUCACCCAUGUCUCCCGUUAUGGGAGUUCCUUAGGUCAGGUAGGUCGCCGACUGACGC [#1 Exclusion - Arginine B Attempt #20 (Inspired by Omei)]	150
CUUGAGACAUGAGGAUCACCCAUGUCCGAAGGAGCGUGCGAAAGCACAGGUAGGUCGCGGACAUGAGGAUCACCCAUGUGAGCGA [EAA NP+V+V2 #7 DOUBLE]	40.2
UAAGUUAGGGCGGCCGCCACUCGAACAUGAGGAUCACCCAUGUAAAUUAAUUAAAGGACAUGAAUGAGGACCGGGCCAAGUUAGA [Same State - Tryptophan B / A]	15.2
GGCCCUGCGAGCGCUCGCAGGGCCGCGGAUACCAGCGAGGUCCAUCGCCCUUGGCAGCCGAACAUGAGGAUCACCCAUGUCGGUU [#1 Same State - Theophylline A Attempt #12 (HarryS)]	14.4

Same assay, conditions: Eterna round: R107; input ligand: tryptophan 2.4 mM

Sequence	apparent KD of MS2 coat protein [nM]
UCGCUCGCAGAAAUGCGAGCGAGUUGCGAUACCAGCCCGGAAACGGGCCCUUGGCAGCGCACAUGAGGAUCACCCAUGUCAUGUU [Exclusion - Theophylline A Attempt #2 (HarryS)]	18.1
CGGCCCUCACAUGAGGAUCACCCAUGUGAUACCAGCCUGGAAACAGGCCCUUGGCAGCACAGGUCAUCAAAAGAUGACCAAGCCG [TheoAX 21 #SwitchBubble]	11.8
UAUGCACAUGAGGAUCACCCAUGUAUGGAAGGAGCGGUGAAUGAACCAGGUAGGUCGCCAUGGUGAGGAUCAUCUAUGUAUUCGU [Exclusion - Arginine A (Freestyle 8)]	71.7
UGUAUGUGAUUUGAUACCAGACCAGCUGGUGGUAUCUGAGGAUCACCCAGGUAGGUUUGGGUCCCUUGGCAGCAAAUCGCAUACU [SS Theo B #24 Ms15]	1720
UGUAUGUGAUUUGAUACCAGUUCUGCUGGUAAAACAUGAGGAUCACCCAUGUUACUUUGGGACCCUUGGCAGCAAAUCGCAUACU [SSTheo B #27]	202
UUACAUGAGGAUCACCCAUGUCAUAACGAUACCAGAUAGUUAAUGAUCCCUUGGCAGCGUAAUACCUAGACAUUUAAGUCAUAGG [#25 SameState-TheophyllineA]	50.9
AAUAUAAGUGUAAUUUUAUGUAUCUCUGAUACCAGACCCUCAUGUGUCCCUUGGCAGCAGUAACAUGAGGAUCACCCAUGUAAAA [JR_Nu_SSTheophyA_Sub023]	86
UUUUUCGCGGGCGAUACCAGCUUGAUCGUACUGGCCUGGUACAUGAGGAUCACCCAUGUAAGCCCUUGGCAGCGCGCGCGAGAAG [#1 Exclusion - Theophylline B Attempt #2 (HarryS)]	12
AGUCUUGAACGAAGGAGCGACGUACAUGAGGAUCACCCAUGUGGGAGCGAAAGCUCCCAACGUCAGGUAGGUCGCGUUCGAGACA [SS-ArgB29]	18.5
AAAUAAAUACAUGAGGAUCACCCAUGUGAAGGAGCGCGCGUUAGCGCAGGUAGGUCGCACAUGAACUCCAAAGUGCAAAAGCACA [MAT - Exclusion Arginine A - Mod of Eli - D8]	24.7
ACACAUGAGGGAAGGAGCGCCAUGAACACACAUGAGGAUCACCCAUGUUUUUUUUGUGUUUGGCAGGUAGGUCGCCCACAUGAGG [Same State Arginine B 2]	7.57
GUCAGUGACAGAAGGAGCGACAUGAGGAUCACCCAUGUCUCCCGUUAUGGGAGUUCCUUAGGUCAGGUAGGUCGCUGUCACUGAC [#1 Exclusion - Arginine B Attempt #30 (Inspired by Omei)]	194
CACGGACGAGUGGAUCACCCUCGUAAUAACCGAGGACCGGUACGGCCGCCACUCGAAAACCGUGACCUGUACGAAAAGUGCAGGA	73.2
GGUGGGACUUGUGAUACCAGCCUAAUUCUAAACGAAUUGCACAUGAGGAUCACCCAUGUCGGCCCUUGGCAGCAUGAGUAUUUAU [Anartiison]	117
AUGCAUGUCAGAAGGAGCGUCUUUAACAUGAGGAUCACCCAUGUAACAUUGAAUUCGAUGAGACAGGUAGGUCGCUGAAUAGUAA [JR_SSArginiB_Sub020]	42.9
GCGUUGGUCGGAAGGAGCGACAUGAGGAUCACCCAUGUCUCCCGUUAUGGGAGUUCCUUAGGUCAGGUAGGUCGCCGACUGACGC [#1 Exclusion - Arginine B Attempt #20 (Inspired by Omei)]	143
CUUGAGACAUGAGGAUCACCCAUGUCCGAAGGAGCGUGCGAAAGCACAGGUAGGUCGCGGACAUGAGGAUCACCCAUGUGAGCGA [EAA NP+V+V2 #7 DOUBLE]	22
ACGUCCGGAUUAAUCGUGGGCAUGGUCGAUACCAGUAUUUUAAUCUACCCUUGGCAGCGACAUGAGGAUCACCCAUGUGCGAUGA [XTheo A #18]	16.9
GGCCCUGCGAGCGCUCGCAGGGCCGCGGAUACCAGCGAGGUCCAUCGCCCUUGGCAGCCGAACAUGAGGAUCACCCAUGUCGGUU [#1 Same State - Theophylline A Attempt #12 (HarryS)]	9.96
CCUGCGUUUCUUUUCUUUCGCAGGAAUGAUACCAGUAGGGAAACCUACCCUUGGCAGCAUGGGACAUGAGGAUCACCCAUGUUAU [SSThA NP+V+V2 #3]	300
